Assay: yeast display, Sf9 membrane polyspecificity reagent, FACS + sequencing; frameworks hold sequencing errors
Method in brief: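 Genes from sorted yeast were amplified by colony PCR, read by MiSeq 2 × 250 sequencing and filtered on CDR length. These cells carried a synthetic nanobody library in Saccharomyces cerevisiae BJ5465 and were sorted by FACS into low and high (top ~1%) gates on anti-HA and streptavidin fluorescence. Polyreactivity is labelled according to the gate of origin.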

Sequence	polyreactivity (PSR sort gate)
QVQLVESGGGLVQAGGSLRLSCAASGFIFAGNAMGWYRQAPGKEREWVAAISRRGVRTYYADSVKGRFTISRDNAKNTVYLQMNSLKPEDTAVYYCAADRPASLISSDYWGQGTQVTVSS	high polyreactivity
QVQLVESGGGLVQAGGSLRLSCAASGSTFGRYVMGWYRQAPGKEWELVAAISKNAGSTYYADSVKGRFTISRDNAKNTVYLQMNSLKPEDTAVYYCAADWRTKGYDSLGQGTQVTVSS	high polyreactivity
QVQLVESGGGLVQAGGSLRLSCAASGRIFLYYTMGWYRQAPGKERELDAAITRSGGSTYYADSVKGRFTISRDNAKNTDYLQMNSLKPEDTAVYYCNRAYVRYVPMNYWGQGTQVTVSS	high polyreactivity
QVQLLESGDGLVQAVGSLRLSCAASGYISGYYYMGWYRQAPGKERELVAGIDAFGSSTNYADCVKGRFTISRDNAINSVYLQMNSLKPEDTAVYYCAARPDGDRLFSYWGQGTQVTVSS	low polyreactivity
QVQLVESGGGLVQAGGSLRLSCDASGFTFRAYPIGWYREAPGKERELVAAITYSGGRTYYADSVKGRFTISRDNAKNTVYLQMNSLKPEDTAVYYCANYDYWGQGTQVTVSS	high polyreactivity
QVQLVESGGGLVQAGGSLRLSCAASGIIFQRNDMGWYRQAPGKERELVANIRDGGITYADSVKGRFTISRDNAKNTVYLQMNRLKPEDTAVYYCARDDTSPGYGDQSSNAAYYYWGQGTQVTVSS	low polyreactivity
QVQLVESGGGLVQAGGSLRLICAASGRILPLYAMGWYRQAPGKERELVADITGSDGSTYYADSVKGRFTISRDNAKNTVYLQMNSLKPEDTAVYYCATDAIGRTPSDPWDYYYWGQGTQVTVSS	low polyreactivity
QVQLEESGGGLVQAGGSLRLSCAASGFIFVANAMGWYIQAPWKERELVAAISRRGGSTYYADSVKGRFTISRDNAKNTVYLQMNSLKPEDTAVYYCNAYRRGLSGYGYWGQGTQVTVSS	high polyreactivity
QVQLVESGGGLDQAGGSLRLSCAASGFTFPLYAMGWYRQAPGKERELVAVISRSGGSTYYADSVKGRFTISRDNAKNTVYLQMNSLTPEDTAVYYCAARLVPRSPERGNYDYWGQGTQVTVSS	high polyreactivity
QVQLVESGGGLVQAGGSLRLSCAASGFIFWLYAMGWYRQAPGKERELVAAISSSGGNTYYADSVKGRFTISRDNAKNTVYLQMNSLKPEDTAVYYCAATYSYGRTYSGYYWGQGTQVTVSS	low polyreactivity
QVQLVESGGGLVQAGGSLRLSCAASGRIFSVYTMGWYRQAPGKERELVAAISSGASTNYADSVKGRFTISRDNAKNTVYLQMNSLKPEDTAVYYCAKVLTNFNLYYYWGQGTQVTVSS	low polyreactivity
QVQLVESAGGLVQAGGSLRLSCGASGRIFYYNTMGWYRQAPGKERELVAAITTNGGSTYYADSVKGRFTISRDNAKNTVYLQMYSLKPEDTAVYYCNRDRYPYYYAYNYWGQGTQVTVSS	low polyreactivity
QVQLVESGGGLVQAGGSLRLSCADSGIIFITNAMGWYRQAPGKERELVAAISSTVSTNYADSVKGRFTISRDNAKNTVYLQMNSLIQEDTAVYFCAAEWGLTQGESIYDFWGQGTQVTVSS	low polyreactivity
QVQLVESGGGLVQAGGSLRLICAASGRIFATYTMGWYRQAPGKERELVAAISRNGGSTYYADSVKGRFTISRDYAKNTVYLQMNSLKTEDTAVYYCNAERRDDRGFDYWGQGTQVTVSS	low polyreactivity
QVQLVESGGGLVQAGGSLRLSCAASGSTFTAYTMGWYRQAPGKERELVAAISKIGTRTYYADSVKGRFTISRDNAKNTVYLQMNSLKPEDTAVYYCATGRSRVYNGRGDYWGQGTQVTVSS	high polyreactivity
QVQLVESGGGLVQAGGSLRLSCAASGSTFRRYAMGWYRQAPGKERELVADIRGIGGSTYYADSVKGRFTISRDNAKNTVYLQMNSLKPEDTAVYYCNTSTLGGYYWGQGTQVTVSS	low polyreactivity
QVQLVESGGGLVQAGGSLRLSCAASGRTFRYYAMGWYRQAPGKERELVASITGSGGSTTYADSVKGRFTISRDNAKNTVYLQMNSLKPEDTAVYYCAVRYPYYSYRAKLGYWGQGTQVTVSS	high polyreactivity
QVQLEESGGGLVQAGGSLRLSCAASGRIFGYYAMGWYRKAPGKERELVAAIRRSGASTYYADSVKGRFTISRDNAENTVYLQMYSLKPVDTAVYYCSQAGYSPVYGYWGQGTQVTVSS	high polyreactivity
QVQLVESGGGLVQAGGSLRLSCAASGFIFNRNAMGWYRQAPGKERELVAAITWSASRTYYADSVKGRFTISRDNAKNTVYLQMNSLKPEDTAVSYCAARRYRGYDYWGQGTQVTVSS	high polyreactivity
QVQLVESGGGLVQAGGSLRLSCAASGRIFSRYAMGWYRQAPGKERELVAAINKSGGSTYYADSVKGRFTISRDNAKNTVYLQMNSLKPEDTAVYYCNAVYYYGRRRYGYWGQGTQVTVSS	high polyreactivity
QVQLVESGGRLVQSGGSLRLSCAPSGSIFLRNAMGWYRQAPGKEREFVASITWNGASTSYADSVKGRFTISRDYAMNTVYLQMNSLKPEDTAVYFCAAVTVQDSNLKYGYWGQGTQVTVSS	low polyreactivity
QVQLEESGGGLVQAGGSLRLSCAASGNTFYLYAMGWYRQAPGKERELVASITGGTRTNYADSVKGRFTISRDNAKNTVYLQMNSLKPEDTAVYYCAKTYPRTVGKYLSRGGYYYWGQGTQVTVSS	high polyreactivity

Sequence	polyreactivity (PSR sort gate)
QVQLVDSGGGLVQAGGSLRLSCAASGSIFQQYAMGWYRQAPGKESELVAAISWGDGSTYYADSVKGRFPISRDNAKNTVYLQMNSLKPEDTAVYYCNAYASAPLWSLEDDYWGQGTQVTVSS	low polyreactivity
QVQLVESGGGLVQAGGSLRLSCAASGYTFYVYTMGWYRQAPGKERELVAAISGSGTSTYYADSVKGRFTISRDNAKNTVYLQMNSLKPEDTAVYYCAAEDYSSDVYSYDYWGQGTQVTVSS	low polyreactivity
QVQLVESGGGLVQAGGSLRLSCAASGFTFYYYAMGWYRQAPGKERELVAAISSTGGSTYYADSVKGRFTISRDNAKNTVYLQMNSLKPEDSAVYYCNAAGYRYPGDYDYWGQGTQVTVSS	high polyreactivity
QVHLVESGGGLVQAGGGLRLSSAASGFIFSPNAMGWYRQAPGKEREYVAAISYSGTSTSYADSVKGRFTISRDNAKNTVYLQMNSLKPEDTAVYYCAAGRSNSYSPRRRVTYGYNYWGQGTQVTVSS	high polyreactivity
QVQLVESGGGLVQAGGSLRLSCAASGITFELYAMGLYIQAPGKERELVAAISSNGGITFYADSVKGRFTISRDNAKNTVYLQMNSLKTEDTAVYYCAARGYIRGPSKLDYWGQGTQVTVSS	high polyreactivity
QVQLVESGGGLDQAGGSLRLSCAASGITFRWYAMGWYRQAPGKERELVAAISSGGSTRYADSVKGRFTISRDNAKNTVYLQMNSLKPEDTAVYYCAKRYYGRGYYYWGQGTQVTVSS	high polyreactivity
QVQLVESGGGLVQAGGSLRLSCAASGFIFYDYAMGWNRQAPGKERELVAAISSGGSTNYADSVKGRFTISRDNAKNTVYLQMNSLKPEDTAVYFCAADDRSYASWKRDYDYWGQGTQVTVSS	low polyreactivity
QVQLVESGGGLVQAGGSLRLSCAASGIIFFYYAMGWYRQAPGKERELVASISSGGSTNYADSVKGRFTISRDNAKNTVYLQMNSLKPEDTALYYCAARRYYVRIQGYKLDYWGHGTQVTVSS	low polyreactivity
QVQLVESGGGLVQAGGSLRLSCAASGSIDRFYAMGWYRQAPRKERDLVAFITSTGRTYYADSVKGRFTISRDNAKNTVYLQMNSLKPEDTAVYYCAAGYPKRVAYLWFSQYDYWGKGTQVTVSS	low polyreactivity
QVQLVETGVGLVQAGGSLRLSCAASGLTFPNYDMGWYRQAPGKEMELVAAISSSGGSTYYADSVKGRFTISRDNAKNTVYLQMNSLKPEDTAVYYCATEWSYYNYGYDYWGQGTQVTVSS	low polyreactivity
QVQLVESGGGLVQAGGSLRLSCAASGRTFSAYAMGWYRQAPGKERELVAAISRRGGSTYYADSVKGRFTISRDNAKNTVYLQMNSLKPEDTAVYYCAADVYKQYGYYYWGQGTQVTVSS	high polyreactivity
QDQLVESGGGLVQAGGSLRLSCAASGSTFFGNAMGWSRQAPGKERELVAAISRGGGSTYYADSVKGRLTISRDNAKNTVYLQMNCLKPEDTAVYYCNADDPWTGTAVSTPNDSWGQGTQVTVSS	low polyreactivity
QVQHVESGGGLVQAGGSLRLSCAASGFTYFSNAMGWYREAPGKERELVASITNDGSTYADSVKGRFTISRDNAKNTVYLQMNRLKAEDTAVYYCAARFPKWRYSPRTGERFDYWGQGTQVTVSS	low polyreactivity
QVQLVESGGGLVQAGGSLRLSCAASGSTFIRYTMGWYRQAPGKERELVAAISTGGTNYADSVKGRFTISRDNAKNTVYLQMYSLKPGDTAVYYCAKPSSPSLGGVSDRIYWGQGTQVTVSS	low polyreactivity
QVQRVESAGCLVQAGVSLRLSCPPSRRIFSRYAIGWYRQAPGKERELVAAISWSGGSTYYADSVKGRFTISRDNAMNTVYLQLIILKPEDTAVYYCAARRSYSYGSWGQGTQVTVSS	high polyreactivity
QVQLVESGGGLVQAGGSHRLSCAASGITFAFNTMGWYRQAPGKERELVAAISYSGGRTYYADSVKGRFTISRDNAKNTVYLQMNSLKPEDTAVYYCNTRYRGSYDYWGQATQVTVSS	high polyreactivity
QVQLVESGGGLVQAGGSLRLSCAASGITFNWYAMGWYRQAPGKERELVAAISGSGGRTYYADSVKGRFTISRDYPKNTVYLQMTSLKPEDTAVYYCNKVPYYAGQNYVYWGQGTQVTVSS	high polyreactivity
QVQLVESGGGLVQAGGSLRLSCAASGIIFGDNAMGLYRQEPGKERELVATISSSASTNYADSVKGRFTISRDNAKNTVYLQMNSLKPEDTAVYYCAADVYSPPNYDYWGQGTQVTVSS	low polyreactivity
QLQLEESGGGLVQAGASLPLSCAASGLTFVEYAMGCYRQAPGKEREFVAAIRSRGGSTYYADSVKGRFTISRDNAKTTVYLQMNSLKPEDTAVYYCNADGYFWGQGTQVTVSS	low polyreactivity
QVQLVESGGGLVQAGGSLRLSCAASGGTFQYYTMGWYRQAPGKERELVAGISSGGSTYYADSVKGRFTISRDNAKNTVYLQMNSLKPEDTAVYYCNAVSRRKTYGYRIIKYDYWGQGTQVTVSS	high polyreactivity
QVQLVESGGGLVQAGGSLRLSCAASGITFKPNTMGWYRQAPGKERELVAAIDWSGSSTYYADSVKGRFTISRDNAKNTVYLHMNSLKPEDTAVYYCAADEYEYFWSYDYWGQGTQVTVSS	low polyreactivity

Source: the nanobody polyreactivity screen of Harvey et al. (2022)
